# Laboratory results published in IntAct's records for PubMed 28062662.
# B1: Glutaryl-CoA dehydrogenase, mitochondrial (Homo sapiens), Q92947 (parent)
# chain: MALRGVSVRLLSRGPGLHVLRTWVSSAAQTEKGGRTQSQLAKSSRPEFDWQDPLVLEEQLTTDEILIRDTFRTYCQERLMPRILLANRNEVFHREIISEMGELGVLGPTIKGYGCAGVSSVAYGLLARELERVDSGYRSAMSVQSSLVMHPIYAYGSEEQRQKYLPQLAKGELLGCFGLTEPNSGSDPSSMETRAHYNSSNKSYTLNGTKTWITNSPMADLFVVWARCEDGCIRGFLLEKGMRGLSAPRIQGKFSLRASATGMIIMDGVEVPEENVLPGASSLGGPFGCLNNARYGIAWGVLGASEFCLHTARQYALDRMQFGVPLARNQLIQKKLADMLTEITLGLHACLQLGRLKDQDKAAPEMVSLLKRNNCGKALDIARQARDMLGGNGISDEYHVIRHAMNLEAVNTYEGTHDIHALILGRAITGIQAFTASK
# partner: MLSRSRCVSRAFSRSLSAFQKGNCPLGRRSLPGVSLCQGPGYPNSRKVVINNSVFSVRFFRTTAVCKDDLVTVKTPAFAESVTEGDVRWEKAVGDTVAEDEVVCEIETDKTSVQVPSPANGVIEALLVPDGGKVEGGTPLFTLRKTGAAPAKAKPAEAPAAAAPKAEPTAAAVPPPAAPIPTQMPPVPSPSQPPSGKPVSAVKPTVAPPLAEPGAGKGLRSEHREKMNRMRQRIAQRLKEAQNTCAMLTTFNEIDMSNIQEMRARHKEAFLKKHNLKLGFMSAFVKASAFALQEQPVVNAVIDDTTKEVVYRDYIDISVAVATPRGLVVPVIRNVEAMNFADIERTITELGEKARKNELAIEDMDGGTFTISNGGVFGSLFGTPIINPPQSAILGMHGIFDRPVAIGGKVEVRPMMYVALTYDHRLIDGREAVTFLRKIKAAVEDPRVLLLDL
# B2: Glutaryl-CoA dehydrogenase, mitochondrial (Homo sapiens), Q92947 (parent)
# chain: B1 chain
# partner: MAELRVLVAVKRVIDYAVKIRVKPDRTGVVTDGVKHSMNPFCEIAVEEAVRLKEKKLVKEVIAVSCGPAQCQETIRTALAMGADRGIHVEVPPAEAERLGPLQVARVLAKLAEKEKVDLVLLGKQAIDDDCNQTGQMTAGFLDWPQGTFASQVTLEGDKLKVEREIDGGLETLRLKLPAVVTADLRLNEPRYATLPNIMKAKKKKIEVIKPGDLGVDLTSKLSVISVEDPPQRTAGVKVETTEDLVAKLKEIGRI
# Variants of: B1
# Conditions: with odo2_human DLST
row,effect of a mutation on the interaction,Variant
1,increasing interaction strength,W50C
2,increasing interaction strength,G117R
3,decreasing interaction strength,Y113H
4,increasing interaction strength,C115Y
5,decreasing interaction strength,P217L
6,increasing interaction strength,S119L
7,increasing interaction strength,P278S
8,decreasing interaction strength,G101R
9,decreasing interaction strength,Y155H
10,increasing interaction strength,R88C
11,increasing interaction strength,R161Q
12,increasing interaction strength,G244C
13,decreasing interaction strength,R355H
14,increasing interaction strength,R94L
15,decreasing interaction strength,R227P
16,increasing interaction strength,P248L
17,increasing interaction strength,M263V
18,increasing interaction strength,E90K

# Variants of: B2
# Conditions: with etfb_human ETFB
row,effect of a mutation on the interaction,Variant
1,increasing interaction strength,R94L
2,increasing interaction strength,R161Q
3,decreasing interaction strength,G117R
4,increasing interaction strength,R227P
5,increasing interaction strength,Y113H
6,increasing interaction strength,C115Y
7,increasing interaction strength,Y155H
8,decreasing interaction strength,P217L
9,increasing interaction strength,R355H
10,increasing interaction strength,R88C
11,increasing interaction strength,P278S
12,increasing interaction strength,W50C
13,decreasing interaction strength,S119L
14,increasing interaction strength,G244C
15,increasing interaction strength,G101R
16,increasing interaction strength,E90K
17,increasing interaction strength,M263V
18,increasing interaction strength,P248L
